Source: US20180155451A1 (published 2018)

T1: FcγRIIb (human, UniProt P31994 43-217)
T1 construct: extracellular domain; also called FcgRIIb; 2b; not shown: His tag attached to the C terminus
T1 sequence (looked up): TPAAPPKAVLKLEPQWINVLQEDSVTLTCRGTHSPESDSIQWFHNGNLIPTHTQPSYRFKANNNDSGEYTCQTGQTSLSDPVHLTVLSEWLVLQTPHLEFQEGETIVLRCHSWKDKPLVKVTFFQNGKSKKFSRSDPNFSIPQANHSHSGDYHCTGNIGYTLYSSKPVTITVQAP

T2: FcγRIIa H (human, UniProt P12318 34-217)
T2 construct: extracellular domain; also called FcgRIIa H; FcγRIIa type H; not shown: His tag attached to the C terminus
T2 sequence (looked up): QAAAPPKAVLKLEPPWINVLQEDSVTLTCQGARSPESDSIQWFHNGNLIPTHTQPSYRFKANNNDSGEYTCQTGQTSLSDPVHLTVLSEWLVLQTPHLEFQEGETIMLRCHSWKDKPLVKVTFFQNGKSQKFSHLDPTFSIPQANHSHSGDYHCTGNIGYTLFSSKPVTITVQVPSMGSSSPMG


How the values were obtained:
[1] = target: T1, FcγRIIb; assay: SPR (Biacore), antibody captured, FcγR as analyte; binding relative to GpH7-A5/GpH7-B3/GpL16-k0 = 100
[2] = target: T2, FcγRIIa H; assay: as above

Binder	He/Con_2b [1] [control = 100]	He/Con_2aH [2] [control = 100]
GpH7-A5/GpH7-B3 variant S324_10E/GpL16-k0 (antibody, human IgG1, kappa, Heterodimerized IgG1, mutation in the GpH7-B3 chain only; also called He Ab) heavy 1: not shown heavy 2: not shown light: DIVMTQSPLSLPVTPGEPASISCQASESLVHSNRNTYLHWYLQKPGQSPQLLIYKVSNRFSGVPDRFSGSGSGTDFTLKISRVEAEDVGVYYCSQNTHVPPTFGQGTKVEIERTVAAPSVFIFPPSDEQLKSGTASVVCLLNNFYPREAKVQWKVDNALQSGNSQESVTEQDSKDSTYSLSSTLTLSKADYEKHKVYACEVTHQGLSSPVTKSFNRGEC	77.4	103
GpH7-A5/GpH7-B3 variant Y296_04F/GpL16-k0 (antibody, human IgG1, kappa, Heterodimerized IgG1, mutation in the GpH7-B3 chain only; also called He Ab) heavy 1: not shown heavy 2: not shown light: DIVMTQSPLSLPVTPGEPASISCQASESLVHSNRNTYLHWYLQKPGQSPQLLIYKVSNRFSGVPDRFSGSGSGTDFTLKISRVEAEDVGVYYCSQNTHVPPTFGQGTKVEIERTVAAPSVFIFPPSDEQLKSGTASVVCLLNNFYPREAKVQWKVDNALQSGNSQESVTEQDSKDSTYSLSSTLTLSKADYEKHKVYACEVTHQGLSSPVTKSFNRGEC	99.2	100
GpH7-A5/GpH7-B3 variant S324_02A/GpL16-k0 (antibody, human IgG1, kappa, Heterodimerized IgG1, mutation in the GpH7-B3 chain only; also called He Ab) heavy 1: not shown heavy 2: not shown light: DIVMTQSPLSLPVTPGEPASISCQASESLVHSNRNTYLHWYLQKPGQSPQLLIYKVSNRFSGVPDRFSGSGSGTDFTLKISRVEAEDVGVYYCSQNTHVPPTFGQGTKVEIERTVAAPSVFIFPPSDEQLKSGTASVVCLLNNFYPREAKVQWKVDNALQSGNSQESVTEQDSKDSTYSLSSTLTLSKADYEKHKVYACEVTHQGLSSPVTKSFNRGEC	78.3	102
GpH7-A5/GpH7-B3 variant Y300_06M/GpL16-k0 (antibody, human IgG1, kappa, Heterodimerized IgG1, mutation in the GpH7-B3 chain only; also called He Ab) heavy 1: not shown heavy 2: not shown light: DIVMTQSPLSLPVTPGEPASISCQASESLVHSNRNTYLHWYLQKPGQSPQLLIYKVSNRFSGVPDRFSGSGSGTDFTLKISRVEAEDVGVYYCSQNTHVPPTFGQGTKVEIERTVAAPSVFIFPPSDEQLKSGTASVVCLLNNFYPREAKVQWKVDNALQSGNSQESVTEQDSKDSTYSLSSTLTLSKADYEKHKVYACEVTHQGLSSPVTKSFNRGEC	84.3	105
GpH7-A5/GpH7-B3 variant S324_04F/GpL16-k0 (antibody, human IgG1, kappa, Heterodimerized IgG1, mutation in the GpH7-B3 chain only; also called He Ab) heavy 1: not shown heavy 2: not shown light: DIVMTQSPLSLPVTPGEPASISCQASESLVHSNRNTYLHWYLQKPGQSPQLLIYKVSNRFSGVPDRFSGSGSGTDFTLKISRVEAEDVGVYYCSQNTHVPPTFGQGTKVEIERTVAAPSVFIFPPSDEQLKSGTASVVCLLNNFYPREAKVQWKVDNALQSGNSQESVTEQDSKDSTYSLSSTLTLSKADYEKHKVYACEVTHQGLSSPVTKSFNRGEC	89.1	101

Next, values leading:

He/Con_2b [1] [control = 100]	He/Con_2aH [2] [control = 100]	Binder
98.9	104	GpH7-A5/GpH7-B3 variant Y296_09D/GpL16-k0 (antibody, human IgG1, kappa, Heterodimerized IgG1, mutation in the GpH7-B3 chain only; also called He Ab) heavy 1: not shown heavy 2: not shown light: DIVMTQSPLSLPVTPGEPASISCQASESLVHSNRNTYLHWYLQKPGQSPQLLIYKVSNRFSGVPDRFSGSGSGTDFTLKISRVEAEDVGVYYCSQNTHVPPTFGQGTKVEIERTVAAPSVFIFPPSDEQLKSGTASVVCLLNNFYPREAKVQWKVDNALQSGNSQESVTEQDSKDSTYSLSSTLTLSKADYEKHKVYACEVTHQGLSSPVTKSFNRGEC
89.2	101	GpH7-A5/GpH7-B3 variant K326_12R/GpL16-k0 (antibody, human IgG1, kappa, Heterodimerized IgG1, mutation in the GpH7-B3 chain only; also called He Ab) heavy 1: not shown heavy 2: not shown light: DIVMTQSPLSLPVTPGEPASISCQASESLVHSNRNTYLHWYLQKPGQSPQLLIYKVSNRFSGVPDRFSGSGSGTDFTLKISRVEAEDVGVYYCSQNTHVPPTFGQGTKVEIERTVAAPSVFIFPPSDEQLKSGTASVVCLLNNFYPREAKVQWKVDNALQSGNSQESVTEQDSKDSTYSLSSTLTLSKADYEKHKVYACEVTHQGLSSPVTKSFNRGEC
83.5	102	GpH7-A5/GpH7-B3 variant S324_16H/GpL16-k0 (antibody, human IgG1, kappa, Heterodimerized IgG1, mutation in the GpH7-B3 chain only; also called He Ab) heavy 1: not shown heavy 2: not shown light: DIVMTQSPLSLPVTPGEPASISCQASESLVHSNRNTYLHWYLQKPGQSPQLLIYKVSNRFSGVPDRFSGSGSGTDFTLKISRVEAEDVGVYYCSQNTHVPPTFGQGTKVEIERTVAAPSVFIFPPSDEQLKSGTASVVCLLNNFYPREAKVQWKVDNALQSGNSQESVTEQDSKDSTYSLSSTLTLSKADYEKHKVYACEVTHQGLSSPVTKSFNRGEC
91.5	104	GpH7-A5/GpH7-B3 variant Y296_18N/GpL16-k0 (antibody, human IgG1, kappa, Heterodimerized IgG1, mutation in the GpH7-B3 chain only; also called He Ab) heavy 1: not shown heavy 2: not shown light: DIVMTQSPLSLPVTPGEPASISCQASESLVHSNRNTYLHWYLQKPGQSPQLLIYKVSNRFSGVPDRFSGSGSGTDFTLKISRVEAEDVGVYYCSQNTHVPPTFGQGTKVEIERTVAAPSVFIFPPSDEQLKSGTASVVCLLNNFYPREAKVQWKVDNALQSGNSQESVTEQDSKDSTYSLSSTLTLSKADYEKHKVYACEVTHQGLSSPVTKSFNRGEC
74.5	108	GpH7-A5/GpH7-B3 variant Y300_07I/GpL16-k0 (antibody, human IgG1, kappa, Heterodimerized IgG1, mutation in the GpH7-B3 chain only; also called He Ab) heavy 1: not shown heavy 2: not shown light: DIVMTQSPLSLPVTPGEPASISCQASESLVHSNRNTYLHWYLQKPGQSPQLLIYKVSNRFSGVPDRFSGSGSGTDFTLKISRVEAEDVGVYYCSQNTHVPPTFGQGTKVEIERTVAAPSVFIFPPSDEQLKSGTASVVCLLNNFYPREAKVQWKVDNALQSGNSQESVTEQDSKDSTYSLSSTLTLSKADYEKHKVYACEVTHQGLSSPVTKSFNRGEC
